Here are results for one substance from publication PMC8386121.

In the assay the target is recombinant human PD-L1-Fc fusion protein (dimeric form) (human). The experiment in a line: SEC; SE-HPLC of the two bought PD-L1 ligands (Supplementary Figure S1); conditions not given.

Turning to “recombinant human PD-L1-Fc fusion protein (dimeric form)”, the stoichiometry N came to 2.
